From PMC5896931 (Molecular Biology of the Cell, 2018) come the findings set out here.

The target in one assay is T1, 6His-SUMO-Cap2 (budding yeast, UniProt P13517 1-287).
T1 sequence (looked up): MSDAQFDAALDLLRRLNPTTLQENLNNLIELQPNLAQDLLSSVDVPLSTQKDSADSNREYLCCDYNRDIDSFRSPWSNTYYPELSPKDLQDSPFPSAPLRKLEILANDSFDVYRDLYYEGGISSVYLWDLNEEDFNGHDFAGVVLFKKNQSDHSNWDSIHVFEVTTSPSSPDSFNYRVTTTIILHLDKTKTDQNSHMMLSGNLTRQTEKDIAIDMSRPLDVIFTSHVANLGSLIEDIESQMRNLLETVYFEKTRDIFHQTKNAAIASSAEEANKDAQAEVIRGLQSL
In words: pull-down.

The target of assay [1] is T2, Aim21 (Altered Inheritance of Mitochondria 21), full length, 6His-SUMO tag cleaved (budding yeast, UniProt P40563 1-679).
T2 sequence (looked up): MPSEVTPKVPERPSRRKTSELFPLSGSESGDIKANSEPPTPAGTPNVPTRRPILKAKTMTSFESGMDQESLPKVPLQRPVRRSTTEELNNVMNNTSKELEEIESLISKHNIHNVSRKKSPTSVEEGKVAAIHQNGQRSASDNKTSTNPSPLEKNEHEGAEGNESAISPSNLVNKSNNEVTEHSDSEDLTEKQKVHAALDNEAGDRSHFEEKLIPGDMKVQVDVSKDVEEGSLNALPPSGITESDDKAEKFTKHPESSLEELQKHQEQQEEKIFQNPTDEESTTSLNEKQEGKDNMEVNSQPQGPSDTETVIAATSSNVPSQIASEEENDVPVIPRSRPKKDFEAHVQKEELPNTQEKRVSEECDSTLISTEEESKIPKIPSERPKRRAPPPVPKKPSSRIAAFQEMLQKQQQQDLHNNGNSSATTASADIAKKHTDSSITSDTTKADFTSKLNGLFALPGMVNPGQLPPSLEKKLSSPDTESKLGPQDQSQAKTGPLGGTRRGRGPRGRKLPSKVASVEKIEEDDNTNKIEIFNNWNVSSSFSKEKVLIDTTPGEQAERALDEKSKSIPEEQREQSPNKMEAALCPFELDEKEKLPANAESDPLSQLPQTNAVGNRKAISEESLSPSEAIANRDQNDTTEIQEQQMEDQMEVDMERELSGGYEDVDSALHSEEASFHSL
In words: pull-down.

B1: Cap1, 6His-SUMO tag cleaved (natural protein, budding yeast, UniProt P28495 1-268, looked up)
chain: MSSSKFEEVINKIINDSPPGELREVYDDLIKITSENSKNTILDAIENYNVQNCIPIEVNGNSVIISKYNKEGAKFFDPVNSVIFSVNHLERKGLDIEPYEFTHAKIEKGQLKELHDKLHEYLLQSFPGDVSFAVYPVPEEISKISIIIVSTKYNPNNFWNGHWRSSYIYDLETRELSGQISTQVHYYEDGNVSFQSGKDINQSNVDDVVCTIRDIETNFENDLDLSFFDLNEKQFKALRRRLPVTRSKINWGSAIGSYRLGKNAAEGK
For B1, the binding result with 6His-SUMO-Cap2 is listed as “binds”.

B2: 6His-SUMO-Tda2 (natural protein, budding yeast, UniProt P40045 1-126, looked up)
chain: MSMQIEIKDGRSDNSPLPERKLVTLIQESYDSLKDDNEINLSTESTSNLLIKLVLEKLEKHSSLYKYIASVTTLNIEGLNEENANFSLKNDIGASWESKKDGIFNYKLEDKNNNECYLITILWLHK
For B2, the binding result in assay [1] is reported as “binds”.
